# Data reported in article PMC12363408.
# “And” between values parts separate entries of the source, which are not always exact repeats. Identical values can stand only once.
# Tests used:
# [1] = target: amyloid precursor protein C99 (UniProt P05067); assay: SDS-PAGE with Western blot (SDS-stable oligomers); whole-cell expression samples of E. coli (0.8 OD600, autoinduction or IPTG), heated 4 min at 90°C in SDS dye, 4-20% gel, detected with antibody 6E10
# [2] = target: amyloid precursor protein C99 (UniProt P05067); assay: SDS-PAGE with Western blot (SDS-stable oligomers); SEC fractions of Ni-purified C99 in E. coli lipid pentyl-inulin nanodiscs (detergent-free), heated in SDS dye, 4-20% gel, detected with antibody 6E10
substance,measurement,setting,value
amyloid precursor protein C99 (from UniProt P05067 672-770) (domain or fragment),stoichiometry N,[1],2 and 3
same,stoichiometry N,[2],3
